Substitutions are numbered along the chain they refer to.
What was measured:
[1] = biological target: T1, human histidine tagged (HIS) IL1RFc fusion protein (human); test: HTRF receptor-ligand assay, scFv inhibiting HIS FLAG IL-1β binding to human HIS IL1RFc; incomplete inhibition curve, value estimated; incomplete inhibition curve; IC50 estimated
T1 construct: Biotinylated or cryptate labelled in some assays; also called human HIS IL1RFc; huIL-1R1-Fc
Method: (§1) After pre-incubation of the assay plates, 5 μl of 4 nM HIS FLAG IL1 beta was added. This was followed by 5 μl of 20 nM anti-FLAG IgG labelled with XL665 (CIS Bio international 61FG2XLB) and 5 μl of 3.2 nM anti-human Fc IgG labelled with cryptate (CIS Bio International 61HFCKLB). All dilutions were performed in phosphate buffered saline (PBS) containing 0.4 M potassium fluoride and 0.1% BSA (assay buffer).
(§2) Purified scFv from positive clones identified from screening were tested in either of the above receptor-ligand HTRF® assays for inhibition of binding of human HIS FLAG tagged IL1 beta to human HIS IL1RFc. A skilled person could modify these assays to test IgG or other inhibitor formats. A titration of scFv concentrations was used in order to establish the clone potency as measured by IC₅₀ values in the assay. All dilutions were carried out in assay buffer. 5 μl of a titration of purified scFv sample was added to a 384 well low volume assay plate (Costar 3676). This was then followed by addition of 2 nM human HIS IL1RFc (when using in house HIS IL1 beta) or 8 nM HIS IL1RFc (when using Alexis source IL1 beta) to a volume of 20 μl. Assay plates were then sealed and incubated at room temperature in dark for 1 hour. The subsequent addition steps were carried out as exactly as described for crude scFv containing periplasmic extracts.

[2] = biological target: T2, cynomolgus monkey HIS IL1RFc (cynomolgus monkey); test: KinExA, FAb equilibrated in solution with IL-1R1-Fc; free FAb captured on IL-1R1 beads
T2 construct: also called Cyno his IL1RFc; CynoIL1-R1-Fc
Method: (§3) Firstly either a monomerised FAb was allowed to come to equilibrium with sIL-1R1-Fc (soluble sIL-1R1-Fc), or the IgG was allowed to come to equilibrium with sIL-1R1 (un-tagged). These equilibrated solutions of the interacting molecules were then analysed using KinExA™. 3200 technology. In brief, for each equilibrated sample, the KinExA™. 3200 instrument automatically packed a fresh column of sIL-1R1 conjugated micro-beads. The sample containing antibody (or FAb fragment), antigen, and Ab/antigen (or FAb/antigen) complex (in Dulbecco's PBS, 1 mg mL⁻¹ bovine serum albumin, 0.02% (w/v) sodium azide) was flowed rapidly (0.25 mL/min) through the column to keep the contact time of the sample with the antigen-beads extremely brief. This rapid contact time ensured that, for high affinity (slowly dissociating) interactions, dissociation of the complex was negligible during this short contact time. Free antibody bound to the IL-1R1-beads. A Cy5™ (cyanine) fluorescently labelled secondary antibody, mouse anti-human IgG (heavy and light chain specific) was then passed through the column. Labelled secondary antibody bound to the antibody bound to the column. A buffer wash removed excess label, leaving fluorescence signal on the bead column directly proportional to the amount of free […] in the original sample. […]

[3] = biological target: T1, human histidine tagged (HIS) IL1RFc …; test: as above
Method: as §3

[4] = biological target: T1, human histidine tagged (HIS) IL1RFc …; test: HTRF receptor-ligand assay, scFv inhibiting HIS FLAG IL-1β binding to human HIS IL1RFc
Method: as §1, §2

[5] = biological target: T3, Human sIL-1R1 (R&D Systems), un-tagged (human, UniProt P14778 18-332, limits assumed); test: KinExA, IgG equilibrated in solution with un-tagged sIL-1R1; free IgG captured on IL-1R1 beads
T3 construct: Bought; also called soluble human IL-1R1
T3 sequence (looked up): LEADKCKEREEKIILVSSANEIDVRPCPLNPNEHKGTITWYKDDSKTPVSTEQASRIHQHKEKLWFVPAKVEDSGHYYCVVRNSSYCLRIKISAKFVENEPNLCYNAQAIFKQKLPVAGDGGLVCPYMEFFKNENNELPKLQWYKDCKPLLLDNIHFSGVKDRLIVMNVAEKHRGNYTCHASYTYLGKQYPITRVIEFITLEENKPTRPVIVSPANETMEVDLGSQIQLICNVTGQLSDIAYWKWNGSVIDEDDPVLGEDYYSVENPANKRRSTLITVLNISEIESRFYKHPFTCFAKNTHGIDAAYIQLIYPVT
Method: as §3

[6] = biological target: T4, human IL-1R1, endogenous on human cells (HeLa cells; whole blood) (human, UniProt P14778 18-569); test: cell-based or functional assay
T4 sequence (looked up): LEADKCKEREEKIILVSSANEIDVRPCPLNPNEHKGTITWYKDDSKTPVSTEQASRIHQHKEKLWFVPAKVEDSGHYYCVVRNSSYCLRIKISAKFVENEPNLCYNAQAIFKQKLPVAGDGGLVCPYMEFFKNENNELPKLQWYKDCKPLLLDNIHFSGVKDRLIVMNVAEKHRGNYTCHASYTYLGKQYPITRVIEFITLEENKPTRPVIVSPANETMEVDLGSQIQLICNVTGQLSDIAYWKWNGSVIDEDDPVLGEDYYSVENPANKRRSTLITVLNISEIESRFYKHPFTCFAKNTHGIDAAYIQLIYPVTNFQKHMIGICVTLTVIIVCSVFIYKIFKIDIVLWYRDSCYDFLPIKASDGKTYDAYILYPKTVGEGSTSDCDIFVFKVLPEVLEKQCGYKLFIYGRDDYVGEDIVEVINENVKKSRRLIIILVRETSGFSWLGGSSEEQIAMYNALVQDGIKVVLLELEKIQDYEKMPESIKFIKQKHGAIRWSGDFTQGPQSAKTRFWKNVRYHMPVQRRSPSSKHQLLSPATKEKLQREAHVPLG

T2 sequence (chain, as listed by the source limits assumed): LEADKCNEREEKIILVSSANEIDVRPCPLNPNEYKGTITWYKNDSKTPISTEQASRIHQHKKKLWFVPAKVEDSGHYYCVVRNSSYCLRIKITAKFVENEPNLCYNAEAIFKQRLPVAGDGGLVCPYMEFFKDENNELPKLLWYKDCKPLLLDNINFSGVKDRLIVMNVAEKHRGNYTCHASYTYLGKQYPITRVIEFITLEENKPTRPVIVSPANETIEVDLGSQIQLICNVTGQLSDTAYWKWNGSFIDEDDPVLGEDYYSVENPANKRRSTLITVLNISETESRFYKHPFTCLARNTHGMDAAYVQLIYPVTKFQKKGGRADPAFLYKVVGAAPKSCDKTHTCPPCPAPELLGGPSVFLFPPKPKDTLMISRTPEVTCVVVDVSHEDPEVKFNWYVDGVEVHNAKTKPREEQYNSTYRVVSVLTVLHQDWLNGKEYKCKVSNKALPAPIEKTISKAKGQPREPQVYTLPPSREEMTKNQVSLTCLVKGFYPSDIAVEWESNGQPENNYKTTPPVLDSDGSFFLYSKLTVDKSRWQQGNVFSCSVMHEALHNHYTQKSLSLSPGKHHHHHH

B1: Antibody 1 scFv (scFv, V domains shown)
VH: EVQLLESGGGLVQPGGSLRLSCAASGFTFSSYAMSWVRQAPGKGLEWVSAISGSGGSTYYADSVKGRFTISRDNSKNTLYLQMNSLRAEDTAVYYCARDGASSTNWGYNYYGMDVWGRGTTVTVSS
VL: QAVLTQPSSASGTPGQRVTISCSGSSSNIGSNYVFWYQQFPGTAPQLLVKWNNQRPSGVPDRFSGSKSGTSASLAISGLRSEDEADYYCAAWDDSLSGLVFGGGTKLTVL
notes: Tested as purified scFv; also called KENB026 or KENB061 (parent, not resolved)
IC50 [1]: ~225 nM

B2: Antibody 6 FAb (Fab, V domains shown)
VH: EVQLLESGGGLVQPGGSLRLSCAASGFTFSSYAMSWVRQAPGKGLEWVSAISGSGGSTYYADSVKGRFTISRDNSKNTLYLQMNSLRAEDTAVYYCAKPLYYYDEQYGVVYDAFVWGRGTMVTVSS
VL: QSVLTQPPSVSGAPGQRVTISCTGSSSNIGAGYDVHWYQQLPGTAPKLLIYGDTHRPSGVPDRFSGSKSGTSASLVIAGLQAEDEADYYCQSYDTVRLHHVFGGGTKLTVL
notes: Monomeric FAb made by papain digestion of Antibody 6 IgG1TM; also called anti-IL-1R1FAb; monomerised FAb
Kd [2]: 0.0028 nM
Kd [3]: 0.0025 nM

B3: Antibody 4 scFv (scFv, V domains shown)
VH: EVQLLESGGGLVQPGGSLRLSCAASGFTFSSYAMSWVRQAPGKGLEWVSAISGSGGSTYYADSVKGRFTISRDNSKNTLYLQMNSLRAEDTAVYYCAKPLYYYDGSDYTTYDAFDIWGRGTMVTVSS
VL: B2 VL with V96S, R97L, L98S, H99G, H100S, V101L
notes: as for B1
IC50 [4]: 22.5 nM

B4: Antibody 6 IgG1TM (Triple Mutant, 234F, 235E and 331S) (antibody, V domains shown)
VH: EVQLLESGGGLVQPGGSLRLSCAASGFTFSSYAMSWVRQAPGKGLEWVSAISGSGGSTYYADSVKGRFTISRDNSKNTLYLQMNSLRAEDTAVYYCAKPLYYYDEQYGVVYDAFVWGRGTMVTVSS
VL: B2 VL
notes: IgG1 with Fc triple mutant 234F, 235E, 331S (EU index)
Kd [5]: 0.00305 nM
Mean IC50, whole blood assay, IL-1beta induced release of IL-6 [6]: 311000 nM

— US20100221257A1 (AstraZeneca / MedImmune, published 2010)
